Measured values taken from patent US20250011413A1 (MCMASTER UNIVERSITY, published 2025).

What was measured:
[1] = biological target: T1, PF4/heparin complex (human PF4 complexed with heparin) (human, UniProt P02776 32-101); experiment: BLI (Octet), biotinylated PF4/heparin on streptavidin sensors, 1:1 model; scFv at 4.0 µg/mL
T1 construct: Multimeric complex of PF4 with heparin (not a protein); In the EIAs: PF4 captured on biotinylated heparin on streptavidin plates; In the SRA: platelets with 0.2 U/mL heparin; also called PF4 and heparin complexes
T1 sequence: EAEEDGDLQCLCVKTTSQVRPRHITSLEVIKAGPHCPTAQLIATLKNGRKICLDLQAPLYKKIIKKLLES
Experimental: (§1) The Octet-QK Red 96 (FortéBio, Menlo Park, CA) instrumentation was used to conduct all BLI experiments. A 96-well microtiter plate (black, flat-bottom) was used to hold 200 μL per well of either sample or buffer. Pre-coated streptavidin biosensor tips (FortéBio) were hydrated in phosphate buffered saline (PBS) containing 1% bovine serum albumin (BSA, Sigma-Aldrich) before performing all kinetic assays. Each step was performed at an operating temperature of 23° C. with agitation at 1000 rpm. Streptavidin tips were first equilibrated in PBS+1% BSA to establish a baseline. […] The PF4-coated tips were then dipped into PBS+1% BSA for 13 minutes to re-establish a baseline. Tips were then incubated in an analyte solution containing half-fold dilutions of wildtype scFv (4.0, 2.0, 1.0, 0.5, 0.25 μg/mL in PBS+1% BSA) for 10 minutes to measure association. For mutant scFv association, tips were incubated in an analyte solution containing 200 μL of each mutant and wildtype scFv at a final concentration of 1 μg/mL in PBS+1% BSA. Antibody dissociation steps were performed by dipping sensors in wells containing PBS+1% BSA for 56 minutes. The following negative controls included in these kinetic experiments were also measured: 200 μL of buffer to replace both the antigen and scFv and 200 μL buffer replacing scFv only. Each experiment was performed with PF4 or with PF4/heparin as the immobilized antigen.
(§2) BLI experiments were performed to evaluate binding responses and affinities of wildtype and mutant scFv. Biotinylated PF4 alone or complexed with heparin was immobilized on streptavidin biosensors and used to capture wildtype scFv. Half-fold serial dilutions of wildtype scFv ranging from 0.25 μg/mL to 4 μg/mL were used to determine the optimal concentrations for future experiments PF4 (PF4 FIG. 3; PF4/heparin FIG. 4).

[2] = biological target: T1, PF4/heparin complex (human PF4 …); experiment: BLI (Octet), biotinylated PF4/heparin on streptavidin sensors, 1:1 model; scFv at 2.0 µg/mL
Experimental: as §1, §2

[3] = biological target: T2, Human PF4 (CXCL4), biotinylated, without heparin (human, UniProt P02776 32-101, biotinylated with EZ-link-Sulfo-NHS-LC-Biotin (sites not given)); experiment: BLI (Octet), biotinylated PF4 without heparin on streptavidin sensors, 1:1 model; scFv at 2.0 µg/mL
T2 construct: Immobilised on streptavidin biosensors for BLI; also called PF4 alone; platelet factor 4
T2 sequence: T1 sequence
Experimental: as §1, §2

[4] = biological target: T1, PF4/heparin complex (human PF4 …); experiment: BLI (Octet), biotinylated PF4/heparin on streptavidin sensors, 1:1 model; scFv at 0.5 µg/mL (response near baseline)
Experimental: as §1, with “antigen. […]” for “antigen.”

[5] = biological target: T1, PF4/heparin complex (human PF4 …); experiment: BLI (Octet), biotinylated PF4/heparin on streptavidin sensors, 1:1 model; scFv at 0.5 µg/mL (response near baseline, software limit value)
Experimental: as §1, with “antigen. […]” for “antigen.”

[6] = biological target: T2, Human PF4 (CXCL4), biotinylated, …; experiment: BLI (Octet), biotinylated PF4 without heparin on streptavidin sensors, 1:1 model; scFv at 0.25 µg/mL (response near baseline)
Experimental: (§3) All data was analyzed based on a 1:1 homogenous ligand binding model using Octet® User Software version 3.1.
as §1, with “Antibody dissociation steps were performed by dipping sensors in wells containing PBS+1% BSA for 56 minutes.” left out, “Each experiment was performed with PF4 or with PF4/heparin as the immobilized antigen.” left out

[7] = biological target: T2, Human PF4 (CXCL4), biotinylated, …; experiment: BLI (Octet), biotinylated PF4 without heparin on streptavidin sensors, 1:1 model; scFv at 0.25 µg/mL (response near baseline, software limit value)
Experimental: as §3
as §1, with “Antibody dissociation steps were performed by dipping sensors in wells containing PBS+1% BSA for 56 minutes.” left out, “Each experiment was performed with PF4 or with PF4/heparin as the immobilized antigen.” left out

[8] = biological target: T2, Human PF4 (CXCL4), biotinylated, …; experiment: BLI (Octet), biotinylated PF4 without heparin on streptavidin sensors, 1:1 model; scFv at 4.0 µg/mL
Experimental: as §1, §2

[9] = biological target: T1, PF4/heparin complex (human PF4 …); experiment: BLI (Octet), biotinylated PF4/heparin on streptavidin sensors, 1:1 model; scFv at 0.25 µg/mL (response near baseline)
Experimental: as §1, with “antigen. […]” for “antigen.”

[10] = biological target: T2, Human PF4 (CXCL4), biotinylated, …; experiment: BLI (Octet), biotinylated PF4 without heparin on streptavidin sensors, 1:1 model; scFv at 1.0 µg/mL
Experimental: as §1, §2

[11] = biological target: T1, PF4/heparin complex (human PF4 …); experiment: BLI (Octet), biotinylated PF4/heparin on streptavidin sensors, 1:1 model; scFv at 1.0 µg/mL
Experimental: as §1, §2

B1: Wildtype scFv (KKO-derived single chain variable fragment) (scFv)
scFv: DIQMIQSQKFMSTSVGDRVTVTCKASQNVGTNVAWYQQKPGQSPNALIYSASYRYSGVPDRFTGSGSGTDFTLTITNVQSEDLADYFCQQYNSYPLTFGTGTKLDLKGGGGSGGGGSGGGGSVQLQQSGAELVKPGASVKLSCKASGYTFTNYFIYWVKQRPGQGLEWIGEINPRNGDTDFNEKFESRATLTVDKSSSTAYMQLSSLTSEDSAIYYCTRSPYGNNYGFTYWGQGTLVTVSA
notes: VL-(G4S)3 linker-VH; expressed in E. coli BL21 from pADL-22c, purified on Ni-NTA as histidine-tagged scFv, about 28 kDa; also called WT; KKO-scFv; not shown: histidine tag from the pADL-22c vector
- Kd [1]: 39.3 nM
- koff [1]: 0.000871 s⁻¹
- kon [1]: 22200 M⁻¹ s⁻¹
- Kd [2]: 9.18 nM
- koff [2]: 0.000571 s⁻¹
- kon [2]: 62100 M⁻¹ s⁻¹
- Kd [3]: 9.59 nM
- koff [3]: 0.000515 s⁻¹
- kon [3]: 53800 M⁻¹ s⁻¹
- koff [4]: 0.00504 s⁻¹
- Kd [5]: < 0.001 nM
- koff [6]: 0.021 s⁻¹
- Kd [7]: < 0.001 nM
- Kd [8]: 24.1 nM
- koff [8]: 0.000596 s⁻¹
- kon [8]: 24800 M⁻¹ s⁻¹
- koff [9]: 0.00042 s⁻¹
- Kd [10]: 5.71 nM
- koff [10]: 0.000853 s⁻¹
- kon [10]: 149000 M⁻¹ s⁻¹
- Kd [11]: 0.961 nM
- koff [11]: 0.000264 s⁻¹
- kon [11]: 274000 M⁻¹ s⁻¹
